# Residue numbers refer to the chain shown, from its start.
# B1: AMH7/AML7 (antibody, IgG2, V domains shown)
# VH: QVQLVQSGAEVKKPGASVKVSCKASGYTLTRYGISWVRQAPGQGLEWMGWISAYNGNTNYAQKLQGRVTMTTDTSTSTAYMELRSLRSDDTAVYYCARRDYDILTGYYNGFDPWGQGTLVTVSS
# VL: DIQMTQSPSSLSASVGDRVTITCRASQGIRNDLGWYQQKPGKAPKRLIYAASSLQSGVPSRFSGSGSGTEFTLTISSLQPEDFATYYCLQHKSYPLTFGGGTKVEIK
# notes: human mAb from IgG2 XenoMouse mice; also called AM-7; antibody D
# B2: AMH6/AML6 (antibody, IgG2, V domains shown)
# VH: B1 VH
# VL: B1 VL
# notes: human mAb from IgG2 XenoMouse mice; also called AM-6; antibody E
# B3: AMH8/AML8 (antibody, IgG2, V domains shown)
# VH: B1 VH with Y27N, L29F, R31G, K63N
# VL: B1 VL
# notes: human mAb from IgG2 XenoMouse mice; also called AM-8; antibody C
# B4: AMH10/AML10 (antibody, IgG2, V domains shown)
# VH: QVQLQESGPGLVKPSQTLSLTCTVSGGSISSGGYYWSWIRQHPGKGLEWIGYIYFSGSAYYNPSLKSRVAISVDTSKNQFSLKLSSVTAADTAVYYCAREYYDSSGYPDAFDIWGQGTMVTVSS
# VL: DIQMTQSPSSVSASVGDRVTITCRASQGIRSWLAWYQQKPGKAPKLLIFAASSLQSGVPSRFSGSGSGTEFTLTISSLQPEDFATYYCQQANNFPRTFGQGTKVEIK
# notes: human mAb from IgG2 XenoMouse mice; also called AM-10; antibody F
# B5: AMH4/AML4 (antibody, IgG2, V domains shown)
# VH: QVQLVESGGGVVQPGRSLRLSCAASGINFSSYGMHWVRQAPGKGLEWVAVIWYDGSNKHYADSVKGRFTISRDNSKNTLYLQMNSLRAEDTAVYYCARDTGVYWGQGTLVTVSS
# VL: not shown
# notes: human mAb from IgG2 XenoMouse mice; also called AM-4; antibody B
# Molecular target: T1, huIL-17RA-FLAG-polyHis (human, UniProt Q96F46 33-320)
# T1 construct: also called IL-17RA-FLAG-pHis; wild-type IL-17RA
# Experiment: binning; IL-17RA held by bead mAb A
# Procedure: (§1) The method employed the Bio-Plex Workstation and software (BioRad, Hercules, Calif.), as well as reagents from Luminex® Corp. (Austin, Tex.). […] The mouse-anti-human IgG coating was evaluated and the beads quantified by FACS. Each bead code was separately incubated with 10 ul of anti-IL-17RA antibody for 1 hour at room temperature and then washed. The beads were pooled and then dispensed to a 96-well filter plate (Millipore, Billerica, Mass., product #MSBVN1250). […] The PE-tagged monovalent antibody will detect the presence of the second mAb added to the well, but not the first mAb captured by the monovalent mouse-anti-human IgG antibody. Beads were resuspended in 120u1 PBSAT and at least 100 events/bead code were collected on the Bio-Plex workstation as per the manufacturer's recommended protocol.
row,normalized MFI,Binder
1,-233,B1
2,-70.5,B2
3,-178,B3
4,114,B4
5,-326,B5

# Molecular target: T1, huIL-17RA-FLAG-polyHis
# Experiment: binning; IL-17RA held by bead mAb P
# Procedure: as §1
row,normalized MFI,Binder
1,5640,B1
2,3530,B2
3,5960,B3
4,1720,B4
5,5020,B5

# Molecular target: T1, huIL-17RA-FLAG-polyHis
# Experiment: binning; IL-17RA held by bead mAb R
# Procedure: as §1
row,normalized MFI,Binder
1,3550,B1
2,1660,B2
3,3950,B3
4,1120,B4
5,5880,B5

# Molecular target: T1, huIL-17RA-FLAG-polyHis
# Experiment: binning; IL-17RA held by bead mAb M
# Procedure: (§2) The method employed the Bio-Plex Workstation and software (BioRad, Hercules, Calif.), as well as reagents from Luminex® Corp. (Austin, Tex.). The manufacturers' basic protocols were followed except where noted below (see www.bio-rad.com and www.luminexcorp.com for details). […] The mouse-anti-human IgG coating was evaluated and the beads quantified by FACS. Each bead code was separately incubated with 10 ul of anti-IL-17RA antibody for 1 hour at room temperature and then washed. The beads were pooled and then dispensed to a 96-well filter plate (Millipore, Billerica, Mass., product #MSBVN1250). […] The PE-tagged monovalent antibody will detect the presence of the second mAb added to the well, but not the first mAb captured by the monovalent mouse-anti-human IgG antibody. Beads were resuspended in 120u1 PBSAT and at least 100 events/bead code were collected on the Bio-Plex workstation as per the manufacturer's recommended protocol.
row,normalized MFI,Binder
1,2980,B1
2,1770,B2
3,2880,B3
4,1020,B4
5,1300,B5

# Molecular target: T1, huIL-17RA-FLAG-polyHis
# Experiment: binning; IL-17RA held by bead mAb K
# Procedure: as §1
row,normalized MFI,Binder
1,8680,B1
2,5600,B2
3,8220,B3
4,4110,B4
5,4970,B5

# Molecular target: T1, huIL-17RA-FLAG-polyHis
# Experiment: binning; IL-17RA held by bead mAb N
# Procedure: as §2
row,normalized MFI,Binder
1,3840,B1
2,2410,B2
3,3630,B3
4,1510,B4
5,1950,B5

# Molecular target: T1, huIL-17RA-FLAG-polyHis
# Experiment: binning; IL-17RA held by bead mAb D
# Procedure: as §1
row,normalized MFI,Binder
1,207,B1
2,168,B2
3,264,B3
4,179,B4
5,213,B5

# Molecular target: T1, huIL-17RA-FLAG-polyHis
# Experiment: binning; IL-17RA held by bead mAb I
# Procedure: as §1
row,normalized MFI,Binder
1,6650,B1
2,4330,B2
3,6720,B3
4,3110,B4
5,3710,B5

# Molecular target: T1, huIL-17RA-FLAG-polyHis
# Experiment: binning; IL-17RA held by bead mAb C
# Procedure: as §1
row,normalized MFI,Binder
1,217,B1
2,173,B2
3,260,B3
4,253,B4
5,150,B5

# Molecular target: T1, huIL-17RA-FLAG-polyHis
# Experiment: binning; IL-17RA held by bead mAb H
# Procedure: as §1
row,normalized MFI,Binder
1,3180,B1
2,2540,B2
3,2950,B3
4,3970,B4
5,6790,B5

# Molecular target: T1, huIL-17RA-FLAG-polyHis
# Experiment: binning; IL-17RA held by bead mAb L
# Procedure: as §1
row,normalized MFI,Binder
1,4260,B1
2,2660,B2
3,3540,B3
4,1720,B4
5,1980,B5

# Molecular target: T1, huIL-17RA-FLAG-polyHis
# Experiment: binning; IL-17RA held by bead mAb G
# Procedure: as §1
row,normalized MFI,Binder
1,318,B1
2,334,B2
3,346,B3
4,342,B4
5,235,B5

# Molecular target: T1, huIL-17RA-FLAG-polyHis
# Experiment: binning; IL-17RA held by bead mAb E
# Procedure: as §1
row,normalized MFI,Binder
1,192,B1
2,130,B2
3,163,B3
4,175,B4
5,182,B5

# Molecular target: T1, huIL-17RA-FLAG-polyHis
# Experiment: binning; IL-17RA held by bead mAb O
row,normalized MFI,Binder
1,5540,B1
2,3310,B2
3,5520,B3
4,2630,B4
5,2640,B5

# Molecular target: T1, huIL-17RA-FLAG-polyHis
# Experiment: binning; IL-17RA held by bead mAb Q
# Procedure: as §1
row,normalized MFI,Binder
1,4690,B1
2,2390,B2
3,5500,B3
4,1650,B4
5,8280,B5

# Molecular target: T1, huIL-17RA-FLAG-polyHis
# Experiment: binning; IL-17RA held by bead mAb B
# Procedure: as §1
row,normalized MFI,Binder
1,684,B1
2,447,B2
3,816,B3
4,545,B4
5,453,B5

# Molecular target: T1, huIL-17RA-FLAG-polyHis
# Experiment: binning; IL-17RA held by bead mAb J
# Procedure: as §2
row,normalized MFI,Binder
1,3640,B1
2,2420,B2
3,3590,B3
4,2120,B4
5,1400,B5

# Molecular target: T1, huIL-17RA-FLAG-polyHis
# Experiment: binning; IL-17RA held by bead mAb F
# Procedure: as §1
row,normalized MFI,Binder
1,269,B1
2,152,B2
3,239,B3
4,187,B4
5,173,B5
